Laboratory results as given in US20030138894A1 (Human Genome Sciences, published 2003).
No end group written: not given here.

B1: ACE-2 binding polypeptide WVLCFEWEDCDEK (peptide)
peptide: WVLCFEWEDCDEK
modifications: not fully specified (N-terminus, C-terminus, bridges); cysteine pairing not given here
B2: ACE-2 binding polypeptide RGFCRDSSCSFP (peptide)
peptide: RGFCRDSSCSFP
modifications: not fully specified (N-terminus, C-terminus, bridges); cysteine pairing not given here
B3: ACE-2 binding polypeptide PFECDWGPWTLEMLCGPP (peptide)
peptide: PFECDWGPWTLEMLCGPP
modifications: not fully specified (N-terminus, C-terminus, bridges); cysteine pairing not given here
B4: ACE-2 binding polypeptide WPTCLTMDCVYN (peptide)
peptide: WPTCLTMDCVYN
modifications: not fully specified (N-terminus, C-terminus, bridges); cysteine pairing not given here
B5: ACE-2 binding polypeptide RIGCRDSRCNWWAPG (peptide)
peptide: RIGCRDSRCNWWAPG
modifications: not fully specified (N-terminus, C-terminus, bridges); cysteine pairing not given here
B6: ACE-2 binding polypeptide SPTCRALFCVDF (peptide)
peptide: SPTCRALFCVDF
modifications: not fully specified (N-terminus, C-terminus, bridges); cysteine pairing not given here

The binders below were run against T1, FLAG-tagged ACE-2 target (human, UniProt Q9BYF1 18-740) (assay: phage ELISA on FLAG-ACE-2).
T1 construct: range 1-740; obtained from Human Genome Sciences, Inc; also called FLAG-ACE-2; tagged human ACE-2; not shown: FLAG tag
T1 sequence (Q9BYF1 18-740 limits assumed): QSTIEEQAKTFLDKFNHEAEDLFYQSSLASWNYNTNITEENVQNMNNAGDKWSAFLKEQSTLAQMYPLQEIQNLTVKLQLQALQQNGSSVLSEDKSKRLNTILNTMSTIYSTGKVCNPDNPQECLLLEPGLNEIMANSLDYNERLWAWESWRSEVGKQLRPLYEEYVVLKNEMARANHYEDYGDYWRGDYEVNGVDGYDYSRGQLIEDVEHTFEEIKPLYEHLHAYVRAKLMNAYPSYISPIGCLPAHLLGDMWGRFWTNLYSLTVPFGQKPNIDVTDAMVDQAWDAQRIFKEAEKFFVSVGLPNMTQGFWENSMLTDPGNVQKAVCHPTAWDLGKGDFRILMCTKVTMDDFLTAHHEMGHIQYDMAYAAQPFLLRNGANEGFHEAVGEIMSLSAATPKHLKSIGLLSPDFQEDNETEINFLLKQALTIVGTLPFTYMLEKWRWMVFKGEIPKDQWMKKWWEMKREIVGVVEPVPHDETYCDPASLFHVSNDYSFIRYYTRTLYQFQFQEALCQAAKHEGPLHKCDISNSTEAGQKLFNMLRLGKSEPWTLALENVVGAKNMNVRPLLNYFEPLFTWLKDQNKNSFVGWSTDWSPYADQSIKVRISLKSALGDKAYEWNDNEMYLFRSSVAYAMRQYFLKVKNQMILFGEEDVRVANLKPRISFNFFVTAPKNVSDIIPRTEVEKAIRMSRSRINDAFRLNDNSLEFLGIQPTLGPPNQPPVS
Method: Phage enriched from the third round of selection were screened by ELISA for strong ACE-2 binders. Immulon 2 96-well plates (Dynatech) were coated with streptavidin for 1 hour at 37° C. and subsequently coated with anti-FLAG antibody for 1 hour at room temperature. Half of the plates were further coated with FLAG-ACE-2 as the target plates, and the other half of the plates were coated with FLAG peptide as background plates. The amount of each protein or peptide coated was 100 ng per well. The coated plates were then incubated for 1 hour at room temperature with 1:2 diluted overnight phage cultures that were made by inoculating phage from individual plaques into bacterial host cells. After being washed 7 times with PBST, the plates were incubated with HRP-conjugated anti-M13 antibody (Pharmacia) for 1 hour at room temperature, washed 5 times, developed with TMB peroxidase substrate solution (Kirkegaad & Perry Laboratories, Gaithersburg, Md.), and read at 630 nm on an ELISA plate reader.

Row | binding result | Binder
1 | binds | VGFCFDWEPCDEL (not fully specified (bridges); cysteine pairing not given here) [ACE-2 binding polypeptide VGFCFDWEPCDEL]
2 | binds | AYLCDWILFDSFEMCLAP (not fully specified (bridges); cysteine pairing not given here) [ACE-2 binding polypeptide AYLCDWILFDSFEMCLAP]
3 | binds | SENCQALFCVDF (not fully specified (bridges); cysteine pairing not given here) [ACE-2 binding polypeptide SENCQALFCVDF]
4 | binds | YDWCFDWEQCWDQ (not fully specified (bridges); cysteine pairing not given here) [ACE-2 binding polypeptide YDWCFDWEQCWDQ]
5 | binds | IGFCFEWEVCYEG (not fully specified (bridges); cysteine pairing not given here) [ACE-2 binding polypeptide IGFCFEWEVCYEG]
6 | binds | HSECRWEWFGRTMICMSF (not fully specified (bridges); cysteine pairing not given here) [ACE-2 binding polypeptide HSECRWEWFGRTMICMSF]
7 | binds | B1
8 | binds | FFPCRALEKDSRCSFF (not fully specified (bridges); cysteine pairing not given here) [ACE-2 binding polypeptide FFPCRALEKDSRCSFF]
9 | binds | DYLCFDWEACWLS (not fully specified (bridges); cysteine pairing not given here) [ACE-2 binding polypeptide DYLCFDWEACWLS]
10 | binds | HFSCRLPSLDSRCQLW (not fully specified (bridges); cysteine pairing not given here) [ACE-2 binding polypeptide HFSCRLPSLDSRCQLW]
11 | binds | HLRCMTSDCIHF (not fully specified (bridges); cysteine pairing not given here) [ACE-2 binding polypeptide HLRCMTSDCIHF]
12 | binds | HYNCHTNDCVVL (not fully specified (bridges); cysteine pairing not given here) [ACE-2 binding polypeptide HYNCHTNDCVVL]
13 | binds | MDFCFDWEECWTN (not fully specified (bridges); cysteine pairing not given here) [ACE-2 binding polypeptide MDFCFDWEECWTN]
14 | binds | B2
15 | binds | YEYCFEWEQCWEK (not fully specified (bridges); cysteine pairing not given here) [ACE-2 binding polypeptide YEYCFEWEQCWEK]
16 | binds | GIFCFEWETCYQA (not fully specified (bridges); cysteine pairing not given here) [ACE-2 binding polypeptide GIFCFEWETCYQA]
17 | binds | SGECNWQQFSGWEICLRD (not fully specified (bridges); cysteine pairing not given here) [ACE-2 binding polypeptide SGECNWQQFSGWEICLRD]
18 | binds | NIFCFDWEPCHFG (not fully specified (bridges); cysteine pairing not given here) [ACE-2 binding polypeptide NIFCFDWEPCHFG]
19 | binds | RGWCLDSRCKVF (not fully specified (bridges); cysteine pairing not given here) [ACE-2 binding polypeptide RGWCLDSRCKVF]
20 | binds | YAMCFDWDECFLG (not fully specified (bridges); cysteine pairing not given here) [ACE-2 binding polypeptide YAMCFDWDECFLG]
21 | binds | RGHCRDSRCMMNAPG (not fully specified (bridges); cysteine pairing not given here) [ACE-2 binding polypeptide RGHCRDSRCMMNAPG]
22 | binds | FNPCRLQSRDSACRFR (not fully specified (bridges); cysteine pairing not given here) [ACE-2 binding polypeptide FNPCRLQSRDSACRFR]
23 | binds | B3
24 | binds | FLFCRLASRDSRCASP (not fully specified (bridges); cysteine pairing not given here) [ACE-2 binding polypeptide FLFCRLASRDSRCASP]
25 | binds | FEICFDWEVCHEQ (not fully specified (bridges); cysteine pairing not given here) [ACE-2 binding polypeptide FEICFDWEVCHEQ]
26 | binds | SIYCFDWEDCWDE (not fully specified (bridges); cysteine pairing not given here) [ACE-2 binding polypeptide SIYCFDWEDCWDE]
27 | binds | NDVCLNDDCVYG (not fully specified (bridges); cysteine pairing not given here) [ACE-2 binding polypeptide NDVCLNDDCVYG]
28 | binds | B4
29 | binds | B5
30 | binds | B6
